Patent US20190151483A1, “METHODS OF MAKING 18F-LABELED PRECURSORS AND PEPTIDES, LABELED C-MET BINDING PEPTIDES, AND METHODS OF USE THEREOF” (The United States of America, as Represented by the …, priority 2016, published 2019)
Bridge positions count the residues as written; N and C are the ends. Ends that are not written are not given here.

How the values were obtained:
[1] = system: human prostate cancer cells with known high PSMA expression; assay: In vivo biodistribution and PET images in xenograft mouse models of high-PSMA prostate tumor cell line; settings: data not shown
[2] = molecular target: T1, c-MET receptors (Homo sapiens, UniProt P08581); assay: In vitro saturation binding assay with MKN-45, SNU-16 or U87-MG cells
T1 construct: endogenous in cells; host or cells: MKN-45, SNU-16 or U87-MG cells
Experimental: In vitro saturation assays were performed to determine the binding affinity of Compound 1 for c-MET receptors. Increasing concentrations of Compound 1 were incubated with MKN-45, SNU-16 or U87-MG cells. Non-specific binding was determined in the presence of an unlabeled Met peptide (10^−5 M). Bound peptide was separated from free peptide and the radioactive content was determined. Data was analyzed using a one site binding hyperbola. […] The binding constant was determined to be 3.9 nM. In addition, the estimated Met expression levels (2.4×10^6 receptors per cell) were consistent with known expression in MKN-45, SNU-16, and U87-MG cells. […] (data not shown)

[3] = system: SNU-16 (moderate Met) xenografts; format: in vivo, mouse
[4] = system: U87-MG (low Met) xenografts; format: in vivo, mouse
[5] = system: MKN-45 (high Met) xenografts
[6] = reported labeled albumin; cited from earlier work

T1 sequence (P08581 25-1390): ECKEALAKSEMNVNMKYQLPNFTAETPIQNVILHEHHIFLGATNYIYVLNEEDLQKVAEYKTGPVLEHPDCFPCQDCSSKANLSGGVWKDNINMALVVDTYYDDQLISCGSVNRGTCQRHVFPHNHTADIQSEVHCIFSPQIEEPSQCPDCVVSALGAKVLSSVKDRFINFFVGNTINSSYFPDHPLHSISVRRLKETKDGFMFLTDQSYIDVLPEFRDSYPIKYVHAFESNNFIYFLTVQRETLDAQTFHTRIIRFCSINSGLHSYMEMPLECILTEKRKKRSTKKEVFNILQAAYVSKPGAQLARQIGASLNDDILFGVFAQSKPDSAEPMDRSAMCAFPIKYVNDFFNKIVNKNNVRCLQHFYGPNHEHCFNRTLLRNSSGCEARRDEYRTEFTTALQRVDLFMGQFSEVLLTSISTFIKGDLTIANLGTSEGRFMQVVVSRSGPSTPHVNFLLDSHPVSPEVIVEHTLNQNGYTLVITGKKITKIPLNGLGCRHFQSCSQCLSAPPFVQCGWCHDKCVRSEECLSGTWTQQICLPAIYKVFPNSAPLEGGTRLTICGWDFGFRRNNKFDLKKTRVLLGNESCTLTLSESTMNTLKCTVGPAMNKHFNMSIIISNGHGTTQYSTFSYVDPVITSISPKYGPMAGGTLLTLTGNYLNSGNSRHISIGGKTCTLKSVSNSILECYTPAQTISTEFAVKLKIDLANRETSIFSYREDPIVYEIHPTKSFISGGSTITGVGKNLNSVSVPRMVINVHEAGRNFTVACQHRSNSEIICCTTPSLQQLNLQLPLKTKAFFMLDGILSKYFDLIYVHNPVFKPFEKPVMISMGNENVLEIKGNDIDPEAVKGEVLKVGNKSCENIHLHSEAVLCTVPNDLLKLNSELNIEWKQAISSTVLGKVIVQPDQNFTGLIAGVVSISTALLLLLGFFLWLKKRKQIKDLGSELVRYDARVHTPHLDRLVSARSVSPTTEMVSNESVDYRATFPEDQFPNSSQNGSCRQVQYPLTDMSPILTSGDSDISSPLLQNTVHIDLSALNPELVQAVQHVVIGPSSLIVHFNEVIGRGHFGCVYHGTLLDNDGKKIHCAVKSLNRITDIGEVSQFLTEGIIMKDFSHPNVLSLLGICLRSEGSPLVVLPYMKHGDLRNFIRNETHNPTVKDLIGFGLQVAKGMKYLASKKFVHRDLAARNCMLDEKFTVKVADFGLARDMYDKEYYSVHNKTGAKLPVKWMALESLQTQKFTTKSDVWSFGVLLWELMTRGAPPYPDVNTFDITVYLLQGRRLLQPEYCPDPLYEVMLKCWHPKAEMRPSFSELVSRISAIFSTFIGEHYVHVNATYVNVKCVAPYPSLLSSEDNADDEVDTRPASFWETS

## O=C(O)CC[C@H](NC(=O)N[C@@H](CCCCNC(=O)c1ccc([18F])nc1)C(=O)O)C(=O)O [[^18F]DCFPyL]
[1]
  biodistributions and PET images vs previously reported results: comparable with previously reported results

## Compound 1: 18F-labeled c-Met peptide; cyclic peptide of SEQ ID NO: 1 reacted with [18F]fluoronicotinic acid-2,3,5,6-tetrafluorophenyl ester (AGSCYCSGPPRFECWCYETEGTGGGK; disulfide 6-14, 4-16; also: [18F]fluoronicotinoyl conjugated via tetrafluorophenyl ester, site not given here)
[2]; MKN-45 cells, non-specific binding with unlabeled Met peptide 10^−5 M
  specific binding to Met: > 90%
[2]; MKN-45 cells, saturation assay, one site binding hyperbola, read-out: binding constant
  Kd: 3.9 nM
[2]; SNU-16 and U87-MG cell lines, data not shown
  ability to distinguish c-MET concentrations: can distinguish c-MET concentrations
[2]; from saturation binding
  estimated Met expression levels: 2.4×10^6 receptors per cell
[3]; SNU-16 tumors
  PET tumor discernibility: discernable
[3]; mouse, in vivo
  Tumor:Muscle ratio over time course: 7:1-18:1
  fold decrease of T:M vs MKN-45 T:M: 2-60 fold
  fold decrease of tumor uptake vs MKN-45 tumors: 2-6 fold
[4]; U87-MG tumors
  PET tumor discernibility: more difficult to distinguish
[4]; mouse, in vivo
  Tumor:Muscle ratio over time course: 3:1-5:1
  fold decrease of tumor uptake vs MKN-45 tumors: 3-40 fold
[5]; MKN xenografts, 30 to 120 min post-injection
  PET visualization: tumors, kidneys and bladder could be visualized
[5]; MKN-45 and SNU-16 xenografts, images at 30, 60, 120 min
  PET tumor discernibility: discerned as early as 30 min
[5]; MKN-45 xenografts, compared to unblocked
  decrease of T:M ratio on blocking with unlabeled Met peptide: 65%
[5]; mouse, in vivo
  decrease of tumor uptake from 30 to 120 min: approximately 37%
  tumor retention and non-target clearance: highly retained in MKN-45 tumors (high Met expression) and rapidly cleared from non-target tissue

B1: [^18F]albumin: albumin radiolabeled by conjugating Compound 3 to pendant amine groups (protein, UniProt P02770 25-608, looked up)
Albumin: EAHKSEIAHRFKDLGEQHFKGLVLIAFSQYLQKCPYEEHIKLVQEVTDFAKTCVADENAENCDKSIHTLFGDKLCAIPKLRDNYGELADCCAKQEPERNECFLQHKDDNPNLPPFQRPEAEAMCTSFQENPTSFLGHYLHEVARRHPYFYAPELLYYAEKYNEVLTQCCTESDKAACLTPKLDAVKEKALVAAVRQRMKCSSMQRFGERAFKAWAVARMSQRFPNAEFAEITKLATDVTKINKECCHGDLLECADDRAELAKYMCENQATISSKLQACCDKPVLQKSQCLAEIEHDNIPADLPSIAADFVEDKEVCKNYAEAKDVFLGTFLYEYSRRHPDYSVSLLLRLAKKYEATLEKCCAEGDPPACYGTVLAEFQPLVEEPKNLVKTNCELYEKLGEYGFQNAVLVRYTQKAPQVSTPTLVEAARNLGRVGTKCCTLPEAQRLPCVEDYLSAILNRLCVLHEKTPVSEKVTKCCSGSLVERRPCFSALTVDETYVPKEFKAETFTFHSDICTLPDKEKQIKKQTALAELVKHKPKATEDQLKTVMGDFAQFVDKCCKAADKDNCFATEGPNLVARSKEALA
modifications: 18F-labeled via Compound 3
notes: albumin radiolabeled by conjugating Compound 3 to pendant amine groups
[6]
  blood pool imaging property: excellent blood pool imaging property
